Legend:
5HT3a = biological target: T1, 5HT3a (Homo sapiens, UniProt P46098); assay: Ion channel panel (IonWorks Barracuda): 5HT3a; assay type: cell-based
T1 construct: host or cells: HEK293 or CHO
T1 sequence (P46098 whole entry, looked up): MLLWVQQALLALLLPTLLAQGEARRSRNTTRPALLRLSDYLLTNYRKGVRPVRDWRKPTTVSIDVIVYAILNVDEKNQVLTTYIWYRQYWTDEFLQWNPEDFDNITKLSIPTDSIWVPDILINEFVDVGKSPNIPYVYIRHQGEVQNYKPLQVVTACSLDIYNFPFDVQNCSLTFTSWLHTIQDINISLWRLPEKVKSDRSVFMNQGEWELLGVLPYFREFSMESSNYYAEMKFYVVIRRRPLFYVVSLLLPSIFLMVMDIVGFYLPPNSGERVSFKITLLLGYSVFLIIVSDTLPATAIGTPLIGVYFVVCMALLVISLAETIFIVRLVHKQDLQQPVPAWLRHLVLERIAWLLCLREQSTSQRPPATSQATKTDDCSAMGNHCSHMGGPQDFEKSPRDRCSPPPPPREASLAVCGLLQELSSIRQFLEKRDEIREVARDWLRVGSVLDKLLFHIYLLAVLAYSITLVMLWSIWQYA
Description: (§1) This example describes a method for assaying ion channel activity in cells.
(§2) Peptides were screened in duplicate at final concentrations of 20 μM and 200 nM, as determined by amino acid analysis, and diluted into HEPES buffered physiological saline (HBPS). HEK293 or CHO cells from the American Type Culture Collection (ATCC) were transfected with the appropriate ion channel before use. HEK293 cells were grown in Dulbecco's Modified Eagle Medium/Nutrient Mixture F-12, and CHO cells were cultured in Ham's F-12 media. All cultures were supplemented with 10% fetal bovine serum, 100 U/ml penicillin G, 100 μg/ml streptomycin sulfate, and the appropriate selection antibiotics. Prior to use, cells were washed twice with Hank's Balanced Salt Solution, and treated with Accutase cell detachment solution (Sigma-Aldrich). Cells were then washed. Peptides and controls were incubated with cells for at least five minutes.
(§3) Percent inhibition was defined as: (1-(Ipeptide/Icontrol))×100%).
(§4) Percent values were calculated using the following formula: % activation=(IPeptide/Icontrol)×100%, where IPeptide is the current produced by co-application a peptide with agonist, and Icontrol refers to the current produced by stimulation in control. Control used for each ion channel is the reference compound matched to a particular channel, as illustrated in TABLE 10 below.

TRPA1 = biological target: T2, TRPA1 (Homo sapiens, UniProt O75762); assay: Ion channel panel (IonWorks Barracuda): TRPA1; assay type: cell-based; conditions: 100% = no change, <100% = inhibition
T2 construct: host or cells: HEK293 or CHO
Description: as §1, §2, §3, §4

Kv1.2 = biological target: T3, Kv1.2 (Homo sapiens, UniProt P16389); assay: cell-based; assay type: cell-based; conditions: 100% = no change, <100% = inhibition
T3 construct: host or cells: HEK293 or CHO
Description: as §1, §2, §3, §4

Kv1.1 = biological target: T4, Kv1.1 (Homo sapiens, UniProt Q09470); assay: cell-based; assay type: cell-based; conditions: 100% = no change, <100% = inhibition
T4 construct: host or cells: HEK293 or CHO
Description: as §1, §2, §3, §4

Kv1.3 = biological target: T5, Kv1.3 (Homo sapiens, UniProt P22001); assay: cell-based; assay type: cell-based; conditions: 100% = no change, <100% = inhibition
T5 construct: host or cells: HEK293 or CHO
Description: as §1, §2, §3, §4

hERG = hERG (Homo sapiens, UniProt Q12809); assay: in vitro; conditions: 100% = no change, <100% = inhibition
Description: as §1, §2, §3, §4

Nav1.5 = Nav1.5 (Homo sapiens, UniProt Q14524); assay: in vitro; conditions: 100% = no change; for Activity of Nav1.5 with peptide, expressed as a percentage of the reference compound: peptide at 0.2 μM; for Activity of Nav1.5 with peptide (percentage of the reference compound): peptide at 20 μM
Description: as §1, §2, §3, §4

Kir2.1 = biological target: T6, Kir2.1 (Homo sapiens, UniProt P63252); assay: Ion channel panel (IonWorks Barracuda): Kir2.1; assay type: cell-based; conditions: 100% = no change, <100% = inhibition
T6 construct: host or cells: HEK293 or CHO
Description: as §1, §2, §3, §4

GABA = assay: Ion channel panel (IonWorks Barracuda): GABA; assay type: cell-based; conditions: 100% = no change, <100% = inhibition
Description: as §1, §2, §3, §4

α4β2 = biological target: T7, α4β2 (Homo sapiens, UniProt P17787+P43681); assay: Ion channel panel (IonWorks Barracuda): α4β2; assay type: cell-based; conditions: 100% = no change, <100% = inhibition
T7 construct: host or cells: HEK293 or CHO
Description: as §1, §2, §3, §4

TRPV1 = biological target: T8, TRPV1 (Homo sapiens, UniProt Q8NER1); assay: Ion channel panel (IonWorks Barracuda): TRPV1; assay type: cell-based; conditions: 100% = no change, <100% = inhibition
T8 construct: host or cells: HEK293 or CHO
Description: as §1, §2, §3, §4

NR2A = biological target: T9, NR2A (Homo sapiens, UniProt Q12879); assay: Ion channel panel (IonWorks Barracuda): NR2A; assay type: cell-based; conditions: 100% = no change, <100% = inhibition
T9 construct: host or cells: HEK293 or CHO
Description: as §1, §2, §3, §4

Cav2.2 = biological target: T10, Cav2.2 (Homo sapiens, UniProt Q00975); assay: cell-based; conditions: 100% = no change, <100% = inhibition
T10 construct: host or cells: HEK293 or CHO
Description: as §1, §2, §3, §4

Cav2.1 = biological target: T11, Cav2.1 (Homo sapiens, UniProt O00555); assay: cell-based; conditions: 100% = no change, <100% = inhibition
T11 construct: host or cells: HEK293 or CHO
Description: as §1, §2, §3, §4

Kv2.1 = biological target: T12, Kv2.1 (Homo sapiens, UniProt Q14721); assay: cell-based; conditions: 100% = no change, <100% = inhibition
T12 construct: host or cells: HEK293 or CHO
Description: as §1, §2, §3, §4

NR2B = biological target: T13, NR2B (Homo sapiens, UniProt Q13224); assay: Ion channel panel (IonWorks Barracuda): NR2B; assay type: cell-based; conditions: 100% = no change, <100% = inhibition
T13 construct: host or cells: HEK293 or CHO
Description: as §1, §2, §3, §4

Nav1.7 = biological target: T14, Nav1.7 (Homo sapiens, UniProt Q15858); assay: cell-based; assay type: cell-based; conditions: 100% = no change; for Activity of Nav1.7 with peptide, expressed as a percentage of the reference compound: peptide at 0.2 μM; for Activity of Nav1.7 with peptide (percentage of the reference compound): peptide at 20 μM
T14 construct: host or cells: HEK293 or CHO
Description: as §1
as §2, with “Peptides were screened in duplicate at final concentrations of 20 μM and 200 nM, as determined by amino acid analysis, and diluted into HEPES buffered physiological saline (HBPS).” left out
as §3, §4

α3β4 = biological target: T15, α3β4 (Homo sapiens, UniProt P30926+P32297); assay: Ion channel panel (IonWorks Barracuda): α3β4; assay type: cell-based; conditions: 100% = no change, <100% = inhibition
T15 construct: host or cells: HEK293 or CHO
Description: as §1, §2, §3, §4

[1] = first of two Nav1.5 columns (probably TP1)
[2] = second of two Nav1.5 columns (probably TP2)
[3] = first of two Nav1.7 columns (probably TP1)
[4] = second of two Nav1.7 columns (probably TP2)

Nav1.5, sequence (Q14524 whole entry): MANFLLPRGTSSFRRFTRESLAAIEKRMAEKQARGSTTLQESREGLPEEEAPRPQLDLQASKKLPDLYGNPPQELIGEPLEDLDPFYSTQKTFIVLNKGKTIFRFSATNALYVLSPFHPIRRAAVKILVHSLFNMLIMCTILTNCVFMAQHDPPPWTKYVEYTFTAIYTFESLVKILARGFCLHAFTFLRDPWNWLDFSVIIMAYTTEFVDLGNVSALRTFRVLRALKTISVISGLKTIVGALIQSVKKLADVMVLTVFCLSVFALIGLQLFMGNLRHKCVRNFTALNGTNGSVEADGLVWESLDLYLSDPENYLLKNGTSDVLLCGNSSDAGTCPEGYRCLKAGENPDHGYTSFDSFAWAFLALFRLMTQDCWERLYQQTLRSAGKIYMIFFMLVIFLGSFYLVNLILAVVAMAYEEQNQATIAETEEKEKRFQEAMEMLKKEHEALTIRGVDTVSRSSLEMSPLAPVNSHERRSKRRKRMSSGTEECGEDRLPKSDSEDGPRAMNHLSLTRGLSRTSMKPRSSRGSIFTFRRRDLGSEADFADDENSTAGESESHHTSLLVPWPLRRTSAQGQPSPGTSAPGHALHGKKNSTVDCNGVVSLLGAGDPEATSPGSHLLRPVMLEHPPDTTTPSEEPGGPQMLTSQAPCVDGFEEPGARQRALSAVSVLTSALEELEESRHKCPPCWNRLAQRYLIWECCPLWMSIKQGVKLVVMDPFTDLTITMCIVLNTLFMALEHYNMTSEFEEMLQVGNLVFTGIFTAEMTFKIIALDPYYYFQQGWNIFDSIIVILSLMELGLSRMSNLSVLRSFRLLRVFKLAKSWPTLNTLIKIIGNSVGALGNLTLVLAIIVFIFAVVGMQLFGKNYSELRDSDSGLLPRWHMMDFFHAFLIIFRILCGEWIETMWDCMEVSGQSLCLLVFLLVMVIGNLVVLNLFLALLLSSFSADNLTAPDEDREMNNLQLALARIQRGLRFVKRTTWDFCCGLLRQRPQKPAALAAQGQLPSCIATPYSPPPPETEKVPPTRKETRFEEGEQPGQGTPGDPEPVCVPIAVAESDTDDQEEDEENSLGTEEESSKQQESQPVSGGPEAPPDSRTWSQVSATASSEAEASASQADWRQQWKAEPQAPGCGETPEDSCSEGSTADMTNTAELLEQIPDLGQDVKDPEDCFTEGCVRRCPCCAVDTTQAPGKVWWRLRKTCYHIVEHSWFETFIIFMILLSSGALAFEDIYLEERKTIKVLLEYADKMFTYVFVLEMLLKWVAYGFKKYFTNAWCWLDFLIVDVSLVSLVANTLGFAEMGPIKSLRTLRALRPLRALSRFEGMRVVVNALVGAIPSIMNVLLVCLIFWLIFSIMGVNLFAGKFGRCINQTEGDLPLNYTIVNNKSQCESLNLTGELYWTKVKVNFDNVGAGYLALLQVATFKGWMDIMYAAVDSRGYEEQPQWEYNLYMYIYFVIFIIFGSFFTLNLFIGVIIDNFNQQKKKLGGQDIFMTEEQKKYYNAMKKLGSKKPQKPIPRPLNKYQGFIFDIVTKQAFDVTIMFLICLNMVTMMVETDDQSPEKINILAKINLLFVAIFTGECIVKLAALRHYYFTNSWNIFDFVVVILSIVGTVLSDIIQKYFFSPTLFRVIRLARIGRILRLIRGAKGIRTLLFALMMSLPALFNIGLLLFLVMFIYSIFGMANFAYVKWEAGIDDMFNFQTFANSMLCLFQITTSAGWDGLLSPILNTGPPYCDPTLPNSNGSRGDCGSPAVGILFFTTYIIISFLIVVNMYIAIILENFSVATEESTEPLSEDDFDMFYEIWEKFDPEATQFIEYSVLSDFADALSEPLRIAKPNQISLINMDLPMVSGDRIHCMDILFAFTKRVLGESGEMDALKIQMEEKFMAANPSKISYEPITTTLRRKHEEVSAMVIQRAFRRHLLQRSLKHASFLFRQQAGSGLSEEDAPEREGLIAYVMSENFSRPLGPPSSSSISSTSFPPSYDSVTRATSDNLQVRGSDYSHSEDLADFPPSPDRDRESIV
T14 sequence (Q15858 whole entry): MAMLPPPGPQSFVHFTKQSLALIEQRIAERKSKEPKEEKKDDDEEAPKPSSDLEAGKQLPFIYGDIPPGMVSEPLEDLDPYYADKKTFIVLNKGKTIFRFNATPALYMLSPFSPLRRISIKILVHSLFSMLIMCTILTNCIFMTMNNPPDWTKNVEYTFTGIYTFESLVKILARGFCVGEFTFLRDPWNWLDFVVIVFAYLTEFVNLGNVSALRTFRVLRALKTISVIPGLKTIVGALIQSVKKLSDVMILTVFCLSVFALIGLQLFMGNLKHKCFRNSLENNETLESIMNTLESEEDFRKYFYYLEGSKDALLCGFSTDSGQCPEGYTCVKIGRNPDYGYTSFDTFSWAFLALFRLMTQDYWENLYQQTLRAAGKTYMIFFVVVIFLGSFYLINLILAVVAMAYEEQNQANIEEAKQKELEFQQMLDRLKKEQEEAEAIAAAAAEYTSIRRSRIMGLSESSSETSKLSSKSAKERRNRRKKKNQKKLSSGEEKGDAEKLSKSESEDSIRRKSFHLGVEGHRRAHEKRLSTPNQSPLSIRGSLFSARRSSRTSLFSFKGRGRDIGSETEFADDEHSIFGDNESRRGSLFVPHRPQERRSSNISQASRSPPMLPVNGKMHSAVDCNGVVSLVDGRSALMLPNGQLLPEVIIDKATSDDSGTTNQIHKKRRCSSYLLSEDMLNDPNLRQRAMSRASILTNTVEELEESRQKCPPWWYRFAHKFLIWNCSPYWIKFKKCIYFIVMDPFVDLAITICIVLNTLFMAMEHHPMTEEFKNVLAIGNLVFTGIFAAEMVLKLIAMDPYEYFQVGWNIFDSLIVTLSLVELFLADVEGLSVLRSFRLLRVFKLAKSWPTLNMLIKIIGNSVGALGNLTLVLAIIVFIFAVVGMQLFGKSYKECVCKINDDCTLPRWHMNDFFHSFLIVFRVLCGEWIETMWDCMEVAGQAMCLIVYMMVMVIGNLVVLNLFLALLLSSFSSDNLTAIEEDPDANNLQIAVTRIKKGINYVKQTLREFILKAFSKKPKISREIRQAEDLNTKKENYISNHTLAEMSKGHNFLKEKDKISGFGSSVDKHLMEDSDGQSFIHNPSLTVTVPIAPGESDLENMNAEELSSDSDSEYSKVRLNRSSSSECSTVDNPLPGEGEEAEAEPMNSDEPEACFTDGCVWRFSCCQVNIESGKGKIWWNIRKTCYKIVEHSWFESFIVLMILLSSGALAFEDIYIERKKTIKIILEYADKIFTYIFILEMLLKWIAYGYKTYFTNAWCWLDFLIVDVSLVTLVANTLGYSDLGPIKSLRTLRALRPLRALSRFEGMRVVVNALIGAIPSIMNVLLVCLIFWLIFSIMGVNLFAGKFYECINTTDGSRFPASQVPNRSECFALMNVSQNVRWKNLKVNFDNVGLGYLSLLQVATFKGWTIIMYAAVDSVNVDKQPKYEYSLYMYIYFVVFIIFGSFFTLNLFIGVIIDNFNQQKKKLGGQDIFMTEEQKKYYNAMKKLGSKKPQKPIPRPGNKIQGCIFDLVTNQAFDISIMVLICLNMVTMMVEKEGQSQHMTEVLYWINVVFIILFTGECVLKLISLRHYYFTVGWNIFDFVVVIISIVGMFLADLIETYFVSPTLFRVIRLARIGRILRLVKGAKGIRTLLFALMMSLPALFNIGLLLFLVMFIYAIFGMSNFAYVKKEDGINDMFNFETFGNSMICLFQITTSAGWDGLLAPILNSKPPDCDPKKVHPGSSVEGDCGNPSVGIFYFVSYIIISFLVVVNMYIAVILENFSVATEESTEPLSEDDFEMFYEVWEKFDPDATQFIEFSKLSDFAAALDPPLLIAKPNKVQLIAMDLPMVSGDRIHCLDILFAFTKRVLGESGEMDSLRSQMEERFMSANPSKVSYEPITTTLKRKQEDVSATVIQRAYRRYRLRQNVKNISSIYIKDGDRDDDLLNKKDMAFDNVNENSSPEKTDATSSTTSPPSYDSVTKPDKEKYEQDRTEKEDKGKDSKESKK
T15 sequence (P30926 22-498): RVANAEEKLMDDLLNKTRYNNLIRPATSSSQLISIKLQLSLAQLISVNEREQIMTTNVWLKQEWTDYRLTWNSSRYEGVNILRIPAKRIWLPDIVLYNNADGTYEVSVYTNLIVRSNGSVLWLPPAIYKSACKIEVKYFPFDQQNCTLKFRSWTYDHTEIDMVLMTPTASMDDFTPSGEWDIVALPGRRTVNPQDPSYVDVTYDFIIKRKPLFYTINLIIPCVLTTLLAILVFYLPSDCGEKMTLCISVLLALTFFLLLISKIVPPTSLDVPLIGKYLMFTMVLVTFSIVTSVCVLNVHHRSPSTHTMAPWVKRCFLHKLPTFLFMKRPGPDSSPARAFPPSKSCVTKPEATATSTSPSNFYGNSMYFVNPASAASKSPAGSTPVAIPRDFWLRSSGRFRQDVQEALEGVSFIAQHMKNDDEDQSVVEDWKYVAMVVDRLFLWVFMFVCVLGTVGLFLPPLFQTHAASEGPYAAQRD
T15 sequence (P32297 32-505): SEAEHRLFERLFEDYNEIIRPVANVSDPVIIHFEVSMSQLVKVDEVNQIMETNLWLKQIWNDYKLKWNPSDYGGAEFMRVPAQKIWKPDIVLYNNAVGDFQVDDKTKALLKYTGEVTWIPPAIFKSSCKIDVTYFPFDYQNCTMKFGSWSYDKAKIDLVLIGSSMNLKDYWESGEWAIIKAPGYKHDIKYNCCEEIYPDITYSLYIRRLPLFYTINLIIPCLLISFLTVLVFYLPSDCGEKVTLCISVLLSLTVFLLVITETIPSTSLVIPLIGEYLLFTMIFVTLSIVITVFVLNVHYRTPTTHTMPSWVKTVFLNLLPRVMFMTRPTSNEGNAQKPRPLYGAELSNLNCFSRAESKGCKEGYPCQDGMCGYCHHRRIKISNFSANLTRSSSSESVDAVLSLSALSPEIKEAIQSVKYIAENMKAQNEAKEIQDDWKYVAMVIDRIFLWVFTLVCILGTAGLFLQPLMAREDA

Substance: 4 (GSSCAKPRENCNRMNILCCRGECVCPTFGDCFCYGD) [compound 4]
- Activity of 5HT3a with peptide (percentage of the reference compound) (5HT3a): 76%
- Activity of 5HT3a with peptide, expressed as a percentage of the reference compound (5HT3a): 103%
- Activity of TRPA1 with peptide, expressed as a percentage of the reference compound (TRPA1; peptide at 0.2 μM): 135%
- Activity of TRPA1 with peptide (percentage of the reference compound) (TRPA1; peptide at 20 μM): 119%
- Activity of Kv1.2 with peptide, expressed as a percentage of the reference compound (Kv1.2; peptide at 0.2 μM): 90%
- Activity of Kv1.2 with peptide (percentage of the reference compound) (Kv1.2; peptide at 20 μM): 45%
- Activity of Kv1.1 with peptide, expressed as a percentage of the reference compound (Kv1.1; peptide at 0.2 μM): 106%
- Activity of Kv1.1 with peptide (percentage of the reference compound) (Kv1.1; peptide at 20 μM): 91%
- Activity of Kv1.3 with peptide, expressed as a percentage of the reference compound (Kv1.3; peptide at 0.2 μM): 109%
- Activity of Kv1.3 with peptide (percentage of the reference compound) (Kv1.3; peptide at 20 μM): 87%
- Activity of hERG with peptide, expressed as a percentage of the reference compound (hERG; peptide at 0.2 μM): 110%
- Activity of hERG with peptide (percentage of the reference compound) (hERG; peptide at 20 μM): 80%
- Activity of Nav1.5 with peptide, expressed as a percentage of the reference compound (Nav1.5; [1]): 117%
- Activity of Nav1.5 with peptide, expressed as a percentage of the reference compound (Nav1.5; [2]): 118%
- Activity of Nav1.5 with peptide (percentage of the reference compound) (Nav1.5; [1]): 98%
- Activity of Nav1.5 with peptide (percentage of the reference compound) (Nav1.5; [2]): 101%
- Activity of Kir2.1 with peptide, expressed as a percentage of the reference compound (Kir2.1; peptide at 0.2 μM): 109%
- Activity of Kir2.1 with peptide (percentage of the reference compound) (Kir2.1; peptide at 20 μM): 90%
- Activity of GABA with peptide, expressed as a percentage of the reference compound (GABA; peptide at 0.2 μM): 121%
- Activity of GABA with peptide (percentage of the reference compound) (GABA; peptide at 20 μM): 108%
- Activity of a4b2 with peptide, expressed as a percentage of the reference compound (α4β2; peptide at 0.2 μM): 86%
- Activity of a4b2 with peptide (percentage of the reference compound) (α4β2; peptide at 20 μM): 81%
- Activity of TRPV1 with peptide, expressed as a percentage of the reference compound (TRPV1; peptide at 0.2 μM): 110%
- Activity of TRPV1 with peptide (percentage of the reference compound) (TRPV1; peptide at 20 μM): 98%
- Activity of NR2A with peptide, expressed as a percentage of the reference compound (NR2A; peptide at 0.2 μM): 106%
- Activity of NR2A with peptide (percentage of the reference compound) (NR2A; peptide at 20 μM): 90%
- Activity of Cav2.2 with peptide, expressed as a percentage of the reference compound (Cav2.2; peptide at 0.2 μM): 105%
- Activity of Cav2.2 with peptide (percentage of the reference compound) (Cav2.2; peptide at 20 μM): 101%
- Activity of Cav2.1 with peptide, expressed as a percentage of the reference compound (Cav2.1; peptide at 0.2 μM): 111%
- Activity of Cav2.1 with peptide (percentage of the reference compound) (Cav2.1; peptide at 20 μM): 130%
- Activity of Kv2.1 with peptide, expressed as a percentage of the reference compound (Kv2.1; peptide at 0.2 μM): 112%
- Activity of Kv2.1 with peptide (percentage of the reference compound) (Kv2.1; peptide at 20 μM): 102%
- Activity of NR2B with peptide, expressed as a percentage of the reference compound (NR2B; peptide at 0.2 μM): 117%
- Activity of NR2B with peptide (percentage of the reference compound) (NR2B; peptide at 20 μM): 93%
- Activity of Nav1.7 with peptide, expressed as a percentage of the reference compound (Nav1.7; [3]): 95%
- Activity of Nav1.7 with peptide, expressed as a percentage of the reference compound (Nav1.7; [4]): 93%
- Activity of Nav1.7 with peptide (percentage of the reference compound) (Nav1.7; [3]): 96%
- Activity of Nav1.7 with peptide (percentage of the reference compound) (Nav1.7; [4]): 104%
- Activity of a3b4 with peptide, expressed as a percentage of the reference compound (α3β4; peptide at 0.2 μM): 107%
- Activity of a3b4 with peptide (percentage of the reference compound) (α3β4; peptide at 20 μM): 97%

From patent US20200262877A1, “ION CHANNEL-BINDING PEPTIDES AND METHODS OF USE THEREOF” (priority 2017, published 2020)
